The target in data set [1] is T1, PfTET3 (TET3 aminopeptidase; PfTET3Zn) (Pyrococcus furiosus, UniProt Q8TZW4).
T1 construct: gene PF1861; Recombinant, pET-41c; purified as for PhTET3; homododecamer (about 500 kDa); as purified contains two Zn2+ per active site
T1 sequence (Q8TZW4 1-346): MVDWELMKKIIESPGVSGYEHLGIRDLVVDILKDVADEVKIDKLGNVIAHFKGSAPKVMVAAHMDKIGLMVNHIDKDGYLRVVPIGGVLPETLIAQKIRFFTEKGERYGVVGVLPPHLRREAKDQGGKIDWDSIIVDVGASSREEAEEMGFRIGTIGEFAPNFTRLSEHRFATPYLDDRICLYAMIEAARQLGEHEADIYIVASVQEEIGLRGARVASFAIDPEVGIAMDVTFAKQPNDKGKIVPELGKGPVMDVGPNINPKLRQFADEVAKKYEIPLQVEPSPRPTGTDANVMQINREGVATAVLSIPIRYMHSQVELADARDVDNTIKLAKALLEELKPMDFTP
The data set is described as follows: Lys-pNA hydrolysis, pNA release at […] nm, EDTA titration, biphasic fit. It is filed as biochemical. As to conditions: 85 °C; 5 mM Lys-pNA; 0.1 M HEPES pH 7.2, 316 mM KCl; 10 nM enzyme; metal chelation (M1 Zn2+ removal), not direct binding; first site of two; partial step; read-out: EC50_1.

The next data set addresses Glu207 (UniProt position 207, VASVQEEIGLR). Kind of data set: kinetics. As to conditions: not given for the pH series (standard assay: KCl 316 mM), not given for the pH series (standard assay: 0.1 M HEPES pH 7.2).

In publication PMC4745047, “Tuned by metals: the TET peptidase activity is controlled by 3 metal binding sites” (Scientific Reports, 2016) one finds EC50 and pKa data, which are given here for two compounds.

In the case of `O=C(O)CN(CCN(CC(=O)O)CC(=O)O)CC(=O)O` [EDTA], the EC50 in data set [1] is 13 µM.

In general, pKa refers to the pH at which an ionisable group is half protonated. Low readings indicate a group that gives up its proton readily, high ones a group that holds its proton tightly. With “TET3 aminopeptidase (PfTET3; lysine-specific tetrahedral aminopeptidase) (Pyrococcus furiosus)”, the pKa in the data set with Glu207 (20 °C, PfTET3Co: 300 uM Co2+ present (Co2+ in M1 and M3, Zn2+ in M2)) was determined as 5.6; with Glu207 (20 °C, PfTET3Zn: as purified, Zn2+ in M1 and M2, no Co2+ added) it was 5.9; with Glu207 (85 °C, PfTET3Co: 300 uM Co2+ present (Co2+ in M1 and M3, Zn2+ in M2)), 4.45; with Glu207 (85 °C, PfTET3Zn: as purified, Zn2+ in M1 and M2, no Co2+ added), 4.75.
